Source: publication PMC2970701 (DNA repair, 2010)

Target: S. cerevisiae ubiquitin (S. cerevisiae, UniProt P0CG63 1-76)
Test: NMR titration

Chain of S. cerevisiae ubiquitin (P0CG63 1-76): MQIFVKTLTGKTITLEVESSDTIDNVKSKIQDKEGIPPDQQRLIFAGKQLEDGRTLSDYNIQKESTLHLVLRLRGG

binding result: binds
B1: UBZ domain of S. cerevisiae polymerase η (domain or fragment)
chain: TTSSKADEKTPKLECCKYQVTFTDQKALQEHADYHLALKLSEGLNGAEESSKNLSFGEKRLLF
